167 variants from the RNAGym collection of RNA variant scans (doi:10.7554/elife.90254) can be followed below.

First the molecules themselves.
B1: LINE1-full (parent)
chain: UACGUAGGUGGUUUUCCCCUGAUAGUGCUAAGGGGGCCUGGAAGUUUGGACUGGGCAGAGCUCAACACAGCGUGGCAAAGUGGCUGUGGCUAGACUGCCUCUCUGGAUUCCUCGUCACUCAGCAGGGCAUCUCUGAGAGAAAUGCC

The variants in this data set derive from B1. Put plainly: self-cleavage, relative activity (ratio to wild type); higher = more cleavage; in vitro, sequencing; the parent is a self-cleaving ribozyme.
For A69U A136G, the self-cleavage turned out to be 0.06.

With A67U A79U, the self-cleavage was 0.21.

Take A67U A79G: the self-cleavage is 0.18.

A67G G88A: the self-cleavage was determined as 0.05.

A67G U81C: the self-cleavage turned out to be 0.35.

With A65U C76U, the self-cleavage came to 0.22.

A65U G82U: the self-cleavage was determined as 0.15.

As to A67G U87A, the self-cleavage is 0.12.

For the variant A67G G74A, the self-cleavage was determined as 0.45.

For the variant C68U U134C, the self-cleavage was 0.17.

For the variant A69G A107G, the self-cleavage was found to be 0.37.

Regarding A69C U112C, the self-cleavage came out at 0.

For the variant A69C U130C, the self-cleavage came out at 0.36.

For the variant A67G U115C, the self-cleavage was found to be 0.55.

On to A67G U115A, for which the self-cleavage was 0.61.

For the variant A67G U115G, the self-cleavage is 1.22.

For the variant C66U A69G, the self-cleavage was 0.06.

On to A67G A129U, for which the self-cleavage amounted to 0.04.

Take A67G A129G: the self-cleavage turned out to be 0.45.

As for A65G U108A, the self-cleavage stood at 0.04.

For A65G U108C, the self-cleavage amounted to 0.07.

For A67U A94U, the self-cleavage amounted to 0.05.

For the variant A67G G89U, the self-cleavage stood at 0.02.

Regarding A69G U73C, the self-cleavage is 0.59.

For the variant A67G G80A, the self-cleavage came to 0.79.

Consider C68G A121C, for which the self-cleavage was 0.03.

With A67U C133U, the self-cleavage came out at 0.1.

Consider A67U C71U, for which the self-cleavage was 0.02.

As for C66U U96A, the self-cleavage was 0.02.

On to A69G U115A, for which the self-cleavage came out at 0.25.

With A69G U115C, the self-cleavage worked out at 0.88.

As for A69G U115G, the self-cleavage stood at 0.57.

Take A67U A124G: the self-cleavage came out at 0.02.

Regarding A67U A124C, the self-cleavage amounted to 0.17.

With A67G U134C, the self-cleavage turned out to be 0.56.

A65U A79G: the self-cleavage worked out at 0.21.

In the case of A65U G88U, the self-cleavage came to 0.02.

In the case of A69G G139U, the self-cleavage is 0.36.

Take A67G C99U: the self-cleavage is 0.27.

For the variant A67C G135U, the self-cleavage turned out to be 0.05.

For the variant A69G C128A, the self-cleavage is 0.14.

For C68A U109C, the self-cleavage was 0.06.

Turning to C68U A140U, the self-cleavage was found to be 0.22.

Consider C68U A140G, for which the self-cleavage was 0.16.

For the variant A69G U134C, the self-cleavage came out at 0.44.

Turning to A69G U134A, the self-cleavage was 0.37.

With C68A C146U, the self-cleavage turned out to be 0.06.

Take C66U G75A: the self-cleavage came out at 0.04.

As for A69G U132C, the self-cleavage came out at 0.71.

For the variant A67U A117U, the self-cleavage worked out at 0.1.

Take A69C C71A: the self-cleavage worked out at 0.16.

As to A65U A141G, the self-cleavage is 0.18.

Regarding A69G G74A, the self-cleavage amounted to 0.49.

A67C C123A: the self-cleavage amounted to 0.07.

As for A69G U104A, the self-cleavage amounted to 0.2.

As for A69G U104C, the self-cleavage came to 0.71.

On to A65U A121U, for which the self-cleavage amounted to 0.24.

A69C A117G: the self-cleavage amounted to 0.11.

With A67G A78G, the self-cleavage worked out at 0.27.

Consider C68G A141G, for which the self-cleavage turned out to be 0.04.

On to A65U C146U, for which the self-cleavage worked out at 0.16.

With A67C U96C, the self-cleavage was 0.12.

As to C68A A124G, the self-cleavage worked out at 0.05.

Take A65U U73A: the self-cleavage is 0.18.

For A65G U119G, the self-cleavage was determined as 0.

On to A65G U119C, for which the self-cleavage is 0.04.

For the variant A67U U96A, the self-cleavage was 0.02.

For the variant A67C U104C, the self-cleavage was 0.04.

As for C66U A141G, the self-cleavage was 0.03.

Consider C66U U85C, for which the self-cleavage turned out to be 0.02.

Take A69G A140G: the self-cleavage is 0.36.

On to A69G A140U, for which the self-cleavage was 0.47.

For the variant A69G C131A, the self-cleavage was determined as 1.01.

Turning to C66U A136G, the self-cleavage is 0.04.

As to A65U A124G, the self-cleavage is 0.09.

For A65U A124U, the self-cleavage was determined as 0.18.

Turning to A65U U104C, the self-cleavage came out at 0.52.

On to A67C A136G, for which the self-cleavage turned out to be 0.12.

As to C68U U108A, the self-cleavage is 0.2.

Consider C68U U108C, for which the self-cleavage came to 0.32.

Take A67G A94G: the self-cleavage stood at 0.09.

In the case of A65U G114A, the self-cleavage was determined as 0.19.

Turning to A67G A136G, the self-cleavage was 0.67.

Consider A67G A136U, for which the self-cleavage came out at 0.4.

A67G A136C: the self-cleavage was 0.38.

In the case of A67U A141G, the self-cleavage came to 0.13.

With A69G G122A, the self-cleavage turned out to be 0.4.

Consider A65U U115C, for which the self-cleavage was 0.26.

Take A69G U130C: the self-cleavage was determined as 0.67.

On to A69G U130A, for which the self-cleavage stood at 0.39.

Turning to A67U U130A, the self-cleavage was 0.13.

Turning to A67C U102C, the self-cleavage was found to be 0.04.

On to A67C U115A, for which the self-cleavage is 0.04.

As to A65U A117G, the self-cleavage was 0.24.

A69U A138U: the self-cleavage came out at 0.09.

With A69U A121U, the self-cleavage stood at 0.05.

A69U A121G: the self-cleavage came out at 0.05.

For A69G U112C, the self-cleavage was 0.52.

For the variant A69G U112G, the self-cleavage stood at 1.15.

For the variant A69G U112A, the self-cleavage turned out to be 0.74.

Consider A67G A117U, for which the self-cleavage was 0.53.

Take A67G A117G: the self-cleavage stood at 0.52.

On to A67U A69U, for which the self-cleavage came out at 0.04.

A69U G89A: the self-cleavage was determined as 0.04.

Consider A67C U87A, for which the self-cleavage worked out at 0.05.

For A69C A142G, the self-cleavage was determined as 0.11.

For the variant A65G U112C, the self-cleavage was determined as 0.1.

Take A65U A142G: the self-cleavage came to 0.19.

Turning to A67U U81A, the self-cleavage is 0.07.

With A67U U112A, the self-cleavage is 0.13.

Consider A65U U112A, for which the self-cleavage was determined as 0.14.

As to A69G U85C, the self-cleavage stood at 0.51.

On to A67G A140U, for which the self-cleavage is 0.56.

Take A65U G80A: the self-cleavage was determined as 0.28.

For the variant A69G C123G, the self-cleavage amounted to 0.84.

Consider C68A U87A, for which the self-cleavage worked out at 0.01.

As for A67U C84U, the self-cleavage amounted to 0.02.

Consider A67G A107U, for which the self-cleavage turned out to be 0.92.

Consider A67G A107G, for which the self-cleavage amounted to 0.25.

Regarding C68U G74A, the self-cleavage stood at 0.2.

With C68U G88A, the self-cleavage is 0.05.

In the case of A69G G86A, the self-cleavage is 0.03.

For A65U A67G, the self-cleavage was 0.15.

Turning to A65G U104A, the self-cleavage was 0.05.

On to A69G G114A, for which the self-cleavage came out at 0.99.

As to A69G C146U, the self-cleavage is 0.51.

As to A67G A92G, the self-cleavage was 0.09.

A67G A92U: the self-cleavage stood at 0.41.

A65U A129U: the self-cleavage amounted to 0.18.

Take A65U A129G: the self-cleavage was 0.38.

For A69C U143A, the self-cleavage is 0.07.

For the variant A69C U143G, the self-cleavage was 0.

Regarding A69G A79C, the self-cleavage came out at 0.17.

Turning to A65G U115C, the self-cleavage came out at 0.05.

Take A65G U115A: the self-cleavage is 0.04.

Turning to A65U A69G, the self-cleavage came out at 0.09.

A65U A69C: the self-cleavage was found to be 0.02.

As to A69U A94U, the self-cleavage stood at 0.05.

In the case of A65U G139A, the self-cleavage was 0.15.

In the case of A67G A141G, the self-cleavage came to 0.38.

A67U A136U: the self-cleavage was determined as 0.12.

On to A67U A136G, for which the self-cleavage worked out at 0.2.

As to C68U U87C, the self-cleavage turned out to be 0.02.

For A67C, the self-cleavage was determined as 0.06.

Turning to A67U, the self-cleavage was determined as 0.11.

With A67G, the self-cleavage turned out to be 0.5.

As for A67U U143C, the self-cleavage turned out to be 0.2.

Consider A67U U109C, for which the self-cleavage came out at 0.04.

A67U U109A: the self-cleavage turned out to be 0.11.

For A65U G125A, the self-cleavage was 0.21.

Take C68U U115A: the self-cleavage is 0.2.

Consider A69U C99G, for which the self-cleavage is 0.09.

Take C68U G122U: the self-cleavage was 0.21.

Take C66U A140G: the self-cleavage amounted to 0.04.

Consider A69U G72A, for which the self-cleavage is 0.04.

As to A67G A69G, the self-cleavage was determined as 0.31.

Consider A67G U102C, for which the self-cleavage came to 0.58.

Regarding A67G U102A, the self-cleavage was 0.99.

As for A67G C131U, the self-cleavage is 0.56.

On to A67G C84U, for which the self-cleavage was found to be 0.04.

For the variant A67G C84G, the self-cleavage worked out at 0.04.

On to C68A A69G, for which the self-cleavage stood at 0.07.

With A67G U91C, the self-cleavage was 0.16.

In the case of A69G C145U, the self-cleavage is 0.55.

Consider A67U A142G, for which the self-cleavage was 0.15.

With A67U A142U, the self-cleavage was found to be 0.14.

A69G C118U: the self-cleavage is 0.2.
